Measurements as given in the Human Domainome abundance scans (Beltran et al. 2025).
± gives the uncertainty stated by the source.

assay: abundance fitness (aPCA) (normalised: wild type 0, dead -1); higher = more abundant; growth selection in yeast, the domain comes from the species named; conditions: Homo sapiens

Substance | abundance fitness
DnaJ homolog subfamily B member 1 S56P, P25685 | -0.99 ± 0.1
DnaJ homolog subfamily B member 1 S56Q, P25685 | -0.25 ± 0.14
DnaJ homolog subfamily B member 1 S56R, P25685 | -0.226 ± 0.091
DnaJ homolog subfamily B member 1 S56T, P25685 | -0.111 ± 0.087
DnaJ homolog subfamily B member 1 S56V, P25685 | -0.071 ± 0.066
DnaJ homolog subfamily B member 1 S56W, P25685 | -0.853 ± 0.11
DnaJ homolog subfamily B member 1 S56Y, P25685 | -0.493 ± 0.11
DnaJ homolog subfamily B member 1 T8A, P25685 | -0.143 ± 0.079
DnaJ homolog subfamily B member 1 T8C, P25685 | -0.096 ± 0.094
DnaJ homolog subfamily B member 1 T8D, P25685 | -0.101 ± 0.083
DnaJ homolog subfamily B member 1 T8E, P25685 | -0.239 ± 0.11
DnaJ homolog subfamily B member 1 T8F, P25685 | -0.352 ± 0.17
DnaJ homolog subfamily B member 1 T8G, P25685 | -0.469 ± 0.099
DnaJ homolog subfamily B member 1 T8H, P25685 | 0.211 ± 0.46
DnaJ homolog subfamily B member 1 T8I, P25685 | 0.036 ± 0.088
DnaJ homolog subfamily B member 1 T8L, P25685 | -0.101 ± 0.071
DnaJ homolog subfamily B member 1 T8M, P25685 | -0.121 ± 0.17
DnaJ homolog subfamily B member 1 T8N, P25685 | -0.303 ± 0.18
DnaJ homolog subfamily B member 1 T8P, P25685 | -0.333 ± 0.067
DnaJ homolog subfamily B member 1 T8Q, P25685 | -0.165 ± 0.12
DnaJ homolog subfamily B member 1 T8S, P25685 | -0.149 ± 0.093

Substance | abundance fitness
DnaJ homolog subfamily B member 1 T8V, P25685 | -0.106 ± 0.058
DnaJ homolog subfamily B member 1 T8W, P25685 | -0.281 ± 0.1
DnaJ homolog subfamily B member 1 T8Y, P25685 | -0.261 ± 0.05
DnaJ homolog subfamily B member 1 V54A, P25685 | -0.201 ± 0.2
DnaJ homolog subfamily B member 1 V54C, P25685 | 0.063 ± 0.086
DnaJ homolog subfamily B member 1 V54D, P25685 | -0.419 ± 0.14
DnaJ homolog subfamily B member 1 V54E, P25685 | -0.126 ± 0.15
DnaJ homolog subfamily B member 1 V54F, P25685 | 0.077 ± 0.21
DnaJ homolog subfamily B member 1 V54G, P25685 | -0.322 ± 0.058
DnaJ homolog subfamily B member 1 V54H, P25685 | -0.886 ± 0.19
DnaJ homolog subfamily B member 1 V54I, P25685 | -0.096 ± 0.12
DnaJ homolog subfamily B member 1 V54L, P25685 | -0.171 ± 0.076
DnaJ homolog subfamily B member 1 V54M, P25685 | -0.084 ± 0.14
DnaJ homolog subfamily B member 1 V54N, P25685 | -0.084 ± 0.11
DnaJ homolog subfamily B member 1 V54P, P25685 | -0.699 ± 0.059
DnaJ homolog subfamily B member 1 V54Q, P25685 | -0.423 ± 0.21
DnaJ homolog subfamily B member 1 V54S, P25685 | -0.15 ± 0.076
DnaJ homolog subfamily B member 1 V54T, P25685 | 0.065 ± 0.12
DnaJ homolog subfamily B member 1 V54W, P25685 | -0.185 ± 0.16
DnaJ homolog subfamily B member 1 V54Y, P25685 | -0.211 ± 0.27
